We go through 1 substance from patent US20130236470A1.

For experiment [1], the target named is HLA-DR expressed by L428 cells (human). The experiment in a line: flow cytometry on L428 cells, antibody 3.9 ng/mL. Background: In flow cytometry, cells or beads pass a laser one at a time.
Experiment [2] shares this target. The experiment is described as follows: flow cytometry on L428 cells, antibody 7.8 ng/mL.
Experiment [3] shares this target. The experiment in a line: flow cytometry on L428 cells, antibody 0.0 ng/mL (background).
The target is the same in experiment [4]. The experiment is described as follows: flow cytometry on L428 cells, antibody 125.0 ng/mL.
The target is the same in experiment [5]. The experiment is described as follows: flow cytometry on L428 cells, antibody 250.0 ng/mL.
Experiment [6] shares this target. The experiment in a line: flow cytometry on L428 cells, antibody 31.2 ng/mL.
The target is the same in experiment [7]. The experiment in a line: flow cytometry on L428 cells, antibody 62.5 ng/mL.
The target is the same in experiment [8]. The experiment is described as follows: flow cytometry on L428 cells, antibody 1.95 ng/mL.
For experiment [9] the target is unchanged. The experiment in a line: flow cytometry on L428 cells, antibody 0.98 ng/mL.
The target is the same in experiment [10]. The experiment is described as follows: flow cytometry on L428 cells, antibody 15.6 ng/mL.

Turning to “commercially available antibody (clone name: LN3) known to bind to HLA-DR”, the Ability to bind (average strength) in experiment [1] turned out to be 339; in experiment [2], 430; in experiment [3], 129; in experiment [4], 2420; in experiment [5] it was 3270; in [6], 928. Besides, the Ability to bind (average strength) in experiment [7] is 1610; in experiment [8] it was 230; in experiment [9], 181; in experiment [10] it was 694.
